In US12570975B2, “Composition for diagnosis or treatment of a condition associated with increased activity of EIF4E comprising an EIF4E inhibitor” (SoVarGen Co., Ltd., priority 2019, dated 2026):

B1: sheIF4E: shRNA against eIF4E, sense SEQ ID NO: 203 and antisense SEQ ID NO: 204, expressed from mU6 promoter in pCIG-mTOR mutant vector (nucleic acid)
sense: TCGATTGATCTCTAAGTTTGATTTCAAGAGAATCAAACTTAGAGATCAATCGTTTTTTCTCGA
antisense: TCGAGAAAAAACGATTGATCTCTAAGTTTGATTCTCTTGAAATCAAACTTAGAGATCAATCGA

How the values were obtained:
FMCD animal models = assay: Metformin treatment of FMCD animal models, video-EEG seizure analysis; assay type: in vivo, mouse
Excerpt: In this experiment, metformin was intraperitoneally injected at a dose of […] into the FMCD animal models of Example 1 from P14 to P56 for early treatment and from P84 to P114 for late treatment.

[1] = system: FMCD and epilepsy animal models (mTOR-p.C1483Y, mTOR-p.L2427P); assay: Social avoidance test, FMCD epilepsy models; assay type: in vivo, mouse; conditions: mU6-sheIF4E models compared to mU6-shscramble models
Experimental: The arena was a black box (400×400 mm).
(§1) Experiments were performed on the FMCD and epilepsy animal models (mTOR-p.C1483Y, mTOR-p.L2427P) of Example 7-1 and the control normal animal models (mTOR-WT). The same sheIF4E as that described in Example 2 was used. Week 2 after sheIF4E injection, the handling was performed in the animals. Week 3 after sheIF4E injection, the animals were subjected to the behavioral tests.
(§2) The epilepsy animal models were subjected to the substantially same behavioral abnormality assay as in Example 6. The results are depicted in FIGS. 28 and 29.
(§3) Briefly, ASO #77 was administered by ICV injection to the FMCD and epilepsy animal models were generated with the pCIG-mTOR mutant-IRES-EGFP of Example 1. ASO #77 was evaluated for therapeutic potential for neuropsychiatric disorder accompanying the FMCD epilepsy animal models in the substantially same manner as in Example 6.

[2] = system: FMCD and epilepsy animal models (mTOR-p.C1483Y, mTOR-p.L2427P); assay: 3-Chamber test (social interaction), FMCD epilepsy models; assay type: in vivo, mouse; conditions: mU6-sheIF4E models compared to mU6-shscramble models
Experimental: The 3-Chamber test measures social interaction and preference for social novelty. This apparatus consisted of three chambers with dimensions of 12×20×26 cm for the center chamber and dimensions of 14×20×26 cm for the opposite side chambers. Each of the opposite side chambers included a plastic cage (11 cm in diameter, 2.15 cm in height) for an object or stranger mouse in a corner. This experiment consisted of three sessions of habituation (10 min), exploring object/mouse (10 min), and exploring familiar/new mouse (10 min). In the second session, a WT stranger mouse was randomly placed in a plastic cage while the opposite plastic cage was empty. The mouse was allowed to freely explore the whole apparatus. The time spent in each chamber was measured and then used for the subsequent social interaction test. In the last session, a new WT stranger was placed in the empty plastic cage.
Experiments were performed on the FMCD and epilepsy animal models (mTOR-p.C1483Y, mTOR-p.L2427P) of Example 7-1 and the control normal animal models (mTOR-WT). […]
as §3

[3] = system: FMCD and epilepsy animal models (mTOR-p.C1483Y, mTOR-p.L2427P); assay type: in vivo, mouse
Experimental: (§4) Behaviors were recorded and analyzed using EthoVision XT (Noldus).
as §1, §2, §3

[4] = system: FMCD epilepsy animal models; assay: Cortical dysplasia, neuron size and synaptic spine density in sheIF4E FMCD mice; assay type: in vivo, mouse
Experimental: Then, mice born following the electroporation of Example 1-6 were analyzed for neuronal cell size and synaptic spine density. Neuronal cell size was measured in ImageJ software (http://rsbweb.nih.gov/ij/). Synaptic spines were counted using a 63× objective lens. Ten basal dendrites were acquired per subject, and measured in electroporated cells expressing a GFP reporter, using manual counting. For neuronal cell size (FIG. 12), mouse brain tissues at postnatal day 21 were acquired and the size of GFP (green)-positive mutant cells (shScramble or sheIF4E expressed) was measured. For synaptic spine density (FIG. 13), mouse brain tissues at postnatal day 21 were acquired and synaptic spines of basal dendrites were counted in GFP (green)-positive mutant cells (shScramble or sheIF4E expressed).
In addition, for cortical dysplasia (FIG. 11), mouse brain tissues at postnatal day 7 of Example 2-1 were acquired and distributions of GFP (green)-positive mutant cells (shScramble or sheIF4E expressed) in the cortex were detected (n=5 in each case. Scale bar=100 μm. Mean±SEM).

[5] = system: FMCD and epilepsy animal models (mTOR-p.C1483Y, mTOR-p.L2427P); assay: Light & dark box test, FMCD epilepsy models; assay type: in vivo, mouse; conditions: mU6-sheIF4E models compared to mU6-shscramble models
Experimental: as §4, §1, §2, §3

eIF4E [6] = assay: Western blot of eIF4E knockdown by sheIF4E in cell lysates (Neuro2A); assay type: cell-based, mouse; conditions: vs shScramble
Experimental: The pSicoR vector digested with HpaI and XhoI restriction enzymes was ligated with the shScramble or the sheIF4E sequence in the presence of ligase to construct pSicoR-shScramble and pSicoR-sheIF4E vectors, respectively. Neuro2A cells were cultured and transfected with pSicoR to evaluate the translational downregulation of eIF4E in the same manner as in Example 1.2.
Construction of pCIG-MTOR mutant-IRES-GFP; mU6-shScramble or pCIG-MTOR mutant-IRES-GFP; mU6-sheIF4E vector and the inhibitory activity of sheIF4E against eIF4E were identified by western blot analysis using cell lysates.

[7] = system: FMCD animal models (mTOR p.C1483Y, mTOR p.L2427P); assay: Video seizure monitoring in FMCD animal models with sheIF4E-mediated eIF4E knockdown; assay type: in vivo, mouse
Experimental: In FMCD animal models, the onset of epilepsy starts at postnatal day 21 on average and has been completed within postnatal day 50. Video EGG monitoring was conducted from 3 weeks after birth. EGG signals were recorded for 12 hours per day three times in a week from postnatal day 21 to postnatal day 120. From the 12-hour video recordings, the number and length of seizures were measured.
From the 12-hours video recordings, the number and length of seizures were measured (FIG. 10).

eIF4E [8] = assay: Immunostaining for eIF4E in sheIF4E FMCD mice; assay type: in vivo, mouse; conditions: brain tissue at postnatal day 21
Excerpt: For the animal model, prepared in Example 2-1, in which eIF4E was knock-downed using sheIF4E, after embryos that had been electroporated with a plasmid carrying an mTOR mutant gene at embryonic day 14 (E14), in the same manner as in U.S. Pat. No. 9,629,346, were born, the mice expressing fluorescence were screened by flashlight (Electron Microscopy Science, USA).

ADK, IRSp53, and CREB1 = assay: Immunostaining for ADK, IRSp53 and CREB1 in sheIF4E FMCD mice; assay type: in vivo, mouse; conditions: mTOR p.Cys1483Tyr and p.Leu2427Pro mice, compared to shScramble mice
Excerpt: Therefore, the present inventors performed additional immunostaining in order to investigate in vivo knockdown effect on the expression of ADK, IRSp53, and CREB1 in the FMCD mice, and confirmed significant reduced expression of the genes (FIG. 9e). In the brain tissues at postnatal day 21 from the animal models established using pCIG-MTOR mutant-IRES-GFP; mU6-sheIF4E vector in the same manner as in Examples 1-3 and 3-1, the expression of ADK, IRSp53, and CREB1 was decreased with decreasing of eIF4E expression.
In order to examine whether sheIF4E-mediated in-vivo knockdown of eIF4E led to the expression downregulation of eIF4E-sensitive genes, expression of eIF4E-sensitive genes was analyzed by immunofluorescence. The immunofluorescence results are depicted in FIG. 9e. The animal models with the sheIF4E-mediated eIF4E knockdown characteristic and the shScramble mice were substantially the same as in Example 2-1.

[9] = system: FMCD and epilepsy animal models (mTOR-p.C1483Y, mTOR-p.L2427P); assay: Sucrose preference test, FMCD epilepsy models; assay type: in vivo, mouse; conditions: mU6-sheIF4E models compared to mU6-shscramble models
Experimental: Each of mice was habituated for 3-5 days in a cage with two selectable water bottles presented. Thereafter, the mice were each placed in the same cage as the habituation cage at the day of experiment. The mice were presented with two dual bottles, one containing tap water and the other containing 1% sucrose solution. Water and sucrose solution intake was measured after 24 hours and sucrose preference was calculated according to volume of sucrose intake/total volume of fluid intake×100%.
The same sheIF4E as that described in Example 2 was used. Week 2 after sheIF4E injection, the handling was performed in the animals. Week 3 after sheIF4E injection, the animals were subjected to the behavioral tests.
The epilepsy animal models were subjected to the substantially same behavioral abnormality assay as in Example 6.
as §3

[10] = system: FMCD and epilepsy animal models (mTOR-p.C1483Y, mTOR-p.L2427P); assay: Marble burying test, FMCD epilepsy models; assay type: in vivo, mouse; conditions: mU6-sheIF4E models compared to mU6-shscramble models
Experimental: A mouse was placed in the cage.
as §1, §2, §3

| Molecule | seizure onset (FMCD animal models; early treatment P14 to P56, intraperitoneal, 200 m/kg) | seizure frequency and duration (FMCD animal models; epilepsy animal models, FIGS. 14 and 15) | seizure frequency (FMCD animal models; late treatment P84 to P114, intraperitoneal, 200 m/kg) | time spent to interact with the stranger mouse (social ability and depression) [1] | time spent in sniffing zone (social ability) [2] | time spent in center (index of anxiety) ([3]; mU6-sheIF4E models compared to mU6-shscramble models) | dyskinesia (behavior test) ([3]; mouse, in vivo) | cortical dysplasia ([4]; brain tissue at postnatal day 7) | defective neuronal migration ([4]; mTOR mutant mice) | decreased synaptic spine density ([4]; postnatal day 21) | hypertrophic soma (neuronal cell size) ([4]; postnatal day 21) | time spent in center (residence time within the light box) [5] | knockdown of eIF4E by western blot (eIF4E [6]) | frequency and time of seizure ([7]; FMCD animal models in which epilepsy was generated) | spontaneous seizures ([7]; FMCD epilepsy mice) | animals with seizure ([7]; mTOR p.L2427P mutation, video recordings until postnatal day 120) | eIF4E expression in sheIF4E-expressing neurons (immunostaining) (eIF4E [8]) | expression of eIF4E sensitive genes ADK, IRSp53, and CREB1 (ADK, IRSp53, and CREB1) | % sucrose preference [9] | number of buried marbles (repetitive behavior) [10] |
| --- | --- | --- | --- | --- | --- | --- | --- | --- | --- | --- | --- | --- | --- | --- | --- | --- | --- | --- | --- | --- |
| CN(C)C(=N)N=C(N)N [metformin] | prevented seizure onset | reduction of seizure frequency and duration | suppressed seizure frequency |  |  |  |  |  |  |  |  |  |  |  |  |  |  |  |  |  |
| B1 |  |  |  | increased | increased | increased | no dyskinesia | remarkably reduced | significantly alleviated | rescued | rescued | increased | efficient knockdown | remarkably decreased | almost completely rescued | five of 20 | significantly reduced | significantly reduced | increased | increased |
